How the values were obtained:
[1] = test system: BaeR-P (phosphorylated BaeR) (Salmonella enterica serovar Typhimurium); assay: EMSA
[2] = test system: BaeR (Salmonella enterica serovar Typhimurium); assay: EMSA

Substance: sodA promoter fragment A (wild type)
- binding [1]: 0.6 µM
- binding [2]: 0.9 µM

Reference: PMC3799227
